This passage reports activity results from US20240035008.

In this data set the test system is R2Tg (Taeniopygia guttata). Nature of the data set: cell_activity. To be noted: homology-guided insertion without Cas9; RLE and RT dependent (Example 10 reports ~0.5%).

Sequence “TCCTGAGTCGTGCTGCGTCGACAACGGTAGTGACGCGTATTGCCTGGAGGGCGGACGCCGGCATTCGCCGCGTGGTTCCCAGCGACCTGTATCCCCTCGT (double strand) [NOLC1 target (homology arms)]” registered an activity of 0.1%.
